± gives the standard deviation of the averaged measurements.
Assays:
[1] = system: Saccharomyces cerevisiae; assay: protein stability index of tFT-peptide fusion (C-terminal peptide) (PSI (0-1 scale)); higher = more stable (slower turnover); details: genetic background: wild type; temperature: 30 C
[2] = system: Saccharomyces cerevisiae; assay: as above
Method: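 MPS profiling in S. cerevisiae of the tFT-X12 degron library: putative degron peptides plus stable controls, 12 aa, fused to the C-terminus of a sfGFP-mCherry timer. Cells are FACS-sorted into 8 mCherry/sfGFP bins and deep-sequenced. PSI runs from 0 (unstable) to 1 (stable). Backgrounds are wild type, das1Δ and doa10Δ at 30 °C, and wild type, das1Δ, cdc34-1 and cdc53-1 at 37 °C; 2-3 technical replicates each.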

[3] = genetic background: cdc34-1, temperature: 37 C
[4] = genetic background: cdc53-1, temperature: 37 C
[5] = genetic background: das1 deletion, temperature: 30 C
[6] = genetic background: das1 deletion, temperature: 37 C
[7] = genetic background: doa10 deletion, temperature: 30 C
[8] = genetic background: wild type, temperature: 30 C
[9] = genetic background: wild type, temperature: 37 C
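Further: PSI is a weighted mean of sequencing reads over stability bins, variants kept only with over 10 reads, mCherry proximal and sfGFP distal, peptide attached via GGGS linker.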

| Sequence | protein stability index [1] | protein stability index [2, 3] | protein stability index [2, 4] | protein stability index [2, 5] | protein stability index [2, 6] | protein stability index [2, 7] | protein stability index [2, 8] | protein stability index [2, 9] |
| --- | --- | --- | --- | --- | --- | --- | --- | --- |
| VWFCCLFFCFFV | 0.404 ± 0.028 | 0.432 ± 0.021 | 0.448 ± 0.0086 | 0.378 ± 0.028 | 0.47 ± 0.011 | 0.4276 ± 0.0036 | 0.367 ± 0.012 | 0.41 ± 0.012 |
| RVFLVLFLILSG | 0.344 ± 0.028 | 0.297 ± 0.021 | 0.428 ± 0.0072 | 0.287 ± 0.031 | 0.469 ± 0.0087 | 0.262 ± 0.0092 | 0.286 ± 0.018 | 0.425 ± 0.0055 |
| SRWMWFDWLRRA | 0.417 ± 0.065 | 0.644 ± 0.027 | 0.736 ± 0.028 | 0.686 ± 0.026 | 0.747 ± 0.029 | 0.281 ± 0.012 | 0.295 ± 0.0095 | 0.541 ± 0.0019 |
| PSPYSLSPYFLV | 0.425 ± 0.044 | 0.678 ± 0.032 | 0.74 ± 0.011 | 0.646 ± 0.013 | 0.7674 ± 0.0074 | 0.255 ± 0.013 | 0.302 ± 0.043 | 0.4902 ± 0.0013 |
| MALAVRVVFCGA | 0.371 ± 0.058 | 0.3299 ± 0.0012 | 0.338 ± 0.0067 | 0.275 ± 0.032 | 0.436 ± 0.015 | 0.227 ± 0.0095 | 0.27 ± 0.025 | 0.418 ± 0.01 |
| GLNKGKYIKLYT | 0.558 ± 0.089 | 0.68 ± 0.021 | 0.756 ± 0.017 | 0.635 ± 0.035 | 0.733 ± 0.08 | 0.4605 ± 0.0033 | 0.486 ± 0.0097 | 0.641 ± 0.034 |
| GVARALFLWKAV | 0.379 ± 0.041 | 0.64 ± 0.032 | 0.709 ± 0.018 | 0.65 ± 0.022 | 0.7486 ± 0.0021 | 0.286 ± 0.0013 | 0.317 ± 0.03 | 0.464 ± 0.0088 |
| YIILLSRKCAFC | 0.503 ± 0.017 | 0.573 ± 0.017 | 0.65 ± 0.013 | 0.51 ± 0.018 | 0.645 ± 0.015 | 0.401 ± 0.011 | 0.396 ± 0.024 | 0.586 ± 0.029 |
| EFVACFRLLVHG | 0.392 ± 0.014 | 0.3077 ± 0.003 | 0.368 ± 0.04 | 0.278 ± 0.021 | 0.441 ± 0.012 | 0.2322 ± 0.0015 | 0.269 ± 0.027 | 0.4091 ± 0.0033 |
| EGLCCGAYFLVF | 0.571 ± 0.14 | 0.695 ± 0.038 | 0.7228 ± 0.00076 | 0.584 ± 0.034 | 0.709 ± 0.0098 | 0.558 ± 0.014 | 0.587 ± 0.035 | 0.6751 ± 0.0057 |
| FLCLLFYLSFFS | 0.415 ± 0.029 | 0.55 ± 0.018 | 0.5422 ± 4.9e-05 | 0.404 ± 0.028 | 0.572 ± 0.0078 | 0.378 ± 0.021 | 0.391 ± 0.021 | 0.5482 ± 0.0007 |
| GFVCFIHLFLCF | 0.407 ± 0.04 | 0.3496 ± 0.0027 | 0.365 ± 0.011 | 0.334 ± 0.027 | 0.425 ± 0.027 | 0.471 ± 0.045 | 0.316 ± 0.0089 | 0.367 ± 0.0056 |
| PSRLSFALLFHL | 0.49 ± 0.025 | 0.6483 ± 0.00029 | 0.682 ± 0.017 | 0.645 ± 0.018 | 0.7268 ± 0.0049 | 0.395 ± 0.025 | 0.406 ± 0.039 | 0.545 ± 0.0058 |
| DFRGVSVIRHQV | 0.179 ± 0.047 | 0.615 ± 0.065 | 0.7327 ± 0.0024 | 0.64 ± 0.015 | 0.7366 ± 0.0065 | 0.126 ± 0.0098 | 0.147 ± 0.018 | 0.308 ± 0.052 |
| LLSGLVFVFVLG | 0.318 ± 0.02 | 0.293 ± 0.01 | 0.405 ± 0.026 | 0.238 ± 0.04 | 0.445 ± 0.0072 | 0.204 ± 0.0027 | 0.236 ± 0.028 | 0.425 ± 0.014 |
| EFFILYFFLKVL | 0.199 ± 0.021 | 0.195 ± 0.007 | 0.274 ± 0.0064 | 0.21 ± 0.03 | 0.393 ± 0.0076 | 0.104 ± 0.01 | 0.116 ± 0.023 | 0.179 ± 0.0019 |
| FVGVLVLCVCRC | 0.278 ± 0.024 | 0.0544 ± 0.0064 | 0.137 ± 0.015 | 0.17 ± 0.029 | 0.247 ± 0.021 | 0.116 ± 0.025 | 0.155 ± 0.025 | 0.21 ± 0.014 |
| LQSYIFSVRGIS | 0.533 ± 0.078 | 0.707 ± 0.02 | 0.697 ± 0.018 | 0.601 ± 0.029 | 0.707 ± 0.029 | 0.418 ± 0.054 | 0.45 ± 0.046 | 0.638 ± 0.0012 |
| CYSLLFVSVILF | 0.218 ± 0.023 | 0.123 ± 0.091 | 0.158 ± 0.036 | 0.151 ± 0.015 | 0.271 ± 0.023 | 0.135 ± 0.01 | 0.138 ± 0.021 | 0.248 ± 0.0038 |
| LFHFPSWIFCLL | 0.331 ± 0.0049 | 0.562 ± 0.02 | 0.612 ± 0.029 | 0.55 ± 0.036 | 0.688 ± 0.015 | 0.24361 ± 0.00024 | 0.251 ± 0.014 | 0.308 ± 0.016 |

| Sequence | protein stability index [1] | protein stability index [2, 3] | protein stability index [2, 4] | protein stability index [2, 5] | protein stability index [2, 6] | protein stability index [2, 7] | protein stability index [2, 8] | protein stability index [2, 9] |
| --- | --- | --- | --- | --- | --- | --- | --- | --- |
| VLLLRRPLLVFS | 0.244 ± 0.021 | 0.0781 ± 0.025 | 0.105 ± 0.037 | 0.149 ± 0.028 | 0.229 ± 0.014 | 0.128 ± 0.017 | 0.148 ± 0.024 | 0.187 ± 0.0061 |
| DYARAWRTEVVC | 0.424 ± 0.01 | 0.393 ± 0.046 | 0.448 ± 0.025 | 0.328 ± 0.021 | 0.525 ± 0.016 | 0.288 ± 0.015 | 0.332 ± 0.017 | 0.5088 ± 0.0024 |
| RIFWMFFSQHIG | 0.197 ± 0.068 | 0.569 ± 0.011 | 0.761 ± 0.054 | 0.652 ± 0.019 | 0.7247 ± 0.00085 | 0.106 ± 0.0093 | 0.139 ± 0.024 | 0.288 ± 0.017 |
| WDPKISVFVLID | 0.403 ± 0.0096 | 0.439 ± 0.056 | 0.53 ± 0.11 | 0.344 ± 0.024 | 0.55 ± 0.025 | 0.246 ± 0.013 | 0.291 ± 0.018 | 0.479 ± 0.0098 |
| WSVCLLLLGRFC | 0.466 ± 0.018 | 0.523 ± 0.013 | 0.604 ± 0.011 | 0.455 ± 0.026 | 0.617 ± 0.026 | 0.347 ± 0.0005 | 0.381 ± 0.024 | 0.554 ± 0.026 |
| VIGFGEVWIRCV | 0.141 ± 0.0034 | 0.358 ± 0.018 | 0.57 ± 0.058 | 0.435 ± 0.025 | 0.619 ± 0.023 | 0.0708 ± 0.013 | 0.0831 ± 0.01 | 0.0868 ± 0.013 |
| GLFFLCLLSMCF | 0.384 ± 0.061 | 0.34 ± 0.012 | 0.303 ± 0.021 | 0.306 ± 0.029 | 0.423 ± 0.023 | 0.336 ± 0.014 | 0.29 ± 0.029 | 0.396 ± 0.0071 |
| YTVRRVWLVRSR | 0.423 ± 0.0074 | 0.445 ± 0.0056 | 0.521 ± 0.029 | 0.344 ± 0.032 | 0.5005 ± 0.0038 | 0.312 ± 0.012 | 0.325 ± 0.038 | 0.4934 ± 0.0033 |
| IIAGVWFLEILG | 0.479 ± 0.015 | 0.4134 ± 0.0039 | 0.525 ± 0.009 | 0.333 ± 0.027 | 0.527 ± 0.012 | 0.308 ± 0.012 | 0.312 ± 0.022 | 0.497 ± 0.023 |
| RGCFVLRKTHLL | 0.254 ± 0.0058 | 0.635 ± 0.0083 | 0.715 ± 0.017 | 0.645 ± 0.018 | 0.7323 ± 0.0044 | 0.126 ± 0.0097 | 0.152 ± 0.014 | 0.275 ± 0.0075 |
| VLWVYLFLFVIF | 0.255 ± 0.05 | 0.266 ± 0.04 | 0.291 ± 0.033 | 0.248 ± 0.022 | 0.346 ± 0.0079 | 0.235 ± 0.025 | 0.211 ± 0.019 | 0.325 ± 0.019 |
| HRLQFKGYPICA | 0.33 ± 0.0051 | 0.243 ± 0.039 | 0.255 ± 0.067 | 0.235 ± 0.048 | 0.371 ± 0.015 | 0.18 ± 0.0058 | 0.223 ± 0.025 | 0.338 ± 0.0061 |
| VICVVLSKVFLF | 0.444 ± 0.014 | 0.483 ± 0.054 | 0.5728 ± 0.0027 | 0.495 ± 0.027 | 0.588 ± 0.0071 | 0.416 ± 0.0083 | 0.393 ± 0.02 | 0.483 ± 0.013 |
| PFFVFSFLFLLH | 0.288 ± 0.054 | 0.114 ± 0.01 | 0.183 ± 0.023 | 0.192 ± 0.024 | 0.313 ± 0.035 | 0.194 ± 0.012 | 0.15 ± 0.029 | 0.275 ± 0.015 |
| VFLRCRSLSMRV | 0.465 ± 0.03 | 0.475 ± 0.044 | 0.519 ± 0.014 | 0.397 ± 0.028 | 0.5352 ± 0.0026 | 0.409 ± 0.019 | 0.389 ± 0.013 | 0.529 ± 0.012 |
| VKVIILYKIIEV | 0.381 ± 0.038 | 0.353 ± 0.045 | 0.494 ± 0.044 | 0.327 ± 0.029 | 0.5352 ± 0.0045 | 0.29 ± 0.0094 | 0.323 ± 0.027 | 0.549 ± 0.08 |
| LLVLRQYFFFFV | 0.295 ± 0.027 | 0.462 ± 0.026 | 0.531 ± 0.013 | 0.468 ± 0.035 | 0.606 ± 0.017 | 0.238 ± 0.012 | 0.224 ± 0.022 | 0.401 ± 0.011 |
| LWRFFFVAFVGI | 0.421 ± 0.025 | 0.446 ± 0.0079 | 0.509 ± 0.024 | 0.377 ± 0.034 | 0.55 ± 0.0084 | 0.359 ± 0.0076 | 0.357 ± 0.021 | 0.515 ± 0.018 |
| TLLAFLIYLCFL | 0.416 ± 0.012 | 0.496 ± 0.023 | 0.515 ± 0.061 | 0.403 ± 0.023 | 0.546 ± 0.0095 | 0.402 ± 0.017 | 0.365 ± 0.028 | 0.499 ± 0.043 |
